Experimental data taken from article PMC10397247.

Assays:
Experiment in all cases: two-hybrid library CCNG1;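 also: natural log of median RNA to DNA barcode read ratio; higher means stronger binding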
O5-bS = target: T1, O5-bS
T1 chain: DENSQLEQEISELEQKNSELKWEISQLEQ

O7-bS = target: T2, O7-bS
T2 chain: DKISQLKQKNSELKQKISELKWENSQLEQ

O4-bS = target: T3, O4-bS
T3 chain: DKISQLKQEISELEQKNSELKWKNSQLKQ

O6-bS = target: T4, O6-bS
T4 chain: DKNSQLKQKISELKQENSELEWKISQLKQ

O9-bS = target: T5, O9-bS
T5 chain: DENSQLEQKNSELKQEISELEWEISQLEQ

O8-bS = target: T6, O8-bS
T6 chain: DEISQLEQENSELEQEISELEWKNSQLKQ

4H575-bA = target: T7, 4H575-bA
T7 chain: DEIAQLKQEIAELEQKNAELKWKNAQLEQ

4H457-bA = target: T8, 4H457-bA
T8 chain: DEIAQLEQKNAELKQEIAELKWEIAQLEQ

4H797-bA = target: T9, 4H797-bA
T9 chain: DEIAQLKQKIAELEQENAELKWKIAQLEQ

4H855-bA = target: T10, 4H855-bA
T10 chain: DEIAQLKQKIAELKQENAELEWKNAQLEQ

4H953-bA = target: T11, 4H953-bA
T11 chain: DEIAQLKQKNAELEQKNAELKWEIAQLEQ

4H3010-bA = target: T12, 4H3010-bA
T12 chain: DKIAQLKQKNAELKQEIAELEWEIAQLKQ

4H3926-bA = target: T13, 4H3926-bA
T13 chain: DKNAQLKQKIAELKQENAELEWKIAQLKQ

4H683-bA = target: T14, 4H683-bA
T14 chain: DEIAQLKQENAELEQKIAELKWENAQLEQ

4H3112-bA = target: T15, 4H3112-bA
T15 chain: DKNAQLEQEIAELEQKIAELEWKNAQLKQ

4H3427-bA = target: T16, 4H3427-bA
T16 chain: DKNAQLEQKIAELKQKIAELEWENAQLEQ

4H346-bA = target: T17, 4H346-bA
T17 chain: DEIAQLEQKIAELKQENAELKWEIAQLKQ

4H4073-bA = target: T18, 4H4073-bA
T18 chain: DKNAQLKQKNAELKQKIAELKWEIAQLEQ

4H968-bA = target: T19, 4H968-bA
T19 chain: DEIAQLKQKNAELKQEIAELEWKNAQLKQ

4H780-bA = target: T20, 4H780-bA
T20 chain: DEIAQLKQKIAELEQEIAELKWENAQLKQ

4H918-bA = target: T21, 4H918-bA
T21 chain: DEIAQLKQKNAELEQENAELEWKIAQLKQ

4H754-bA = target: T22, 4H754-bA
T22 chain: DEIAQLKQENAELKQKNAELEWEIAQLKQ

4H3354-bN = target: T23, 4H3354-bN
T23 chain: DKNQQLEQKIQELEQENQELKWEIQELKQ

4H72-bN = target: T24, 4H72-bN
T24 chain: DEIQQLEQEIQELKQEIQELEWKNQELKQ

4H953-bN = target: T25, 4H953-bN
T25 chain: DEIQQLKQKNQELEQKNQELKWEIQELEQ

4H908-bN = target: T26, 4H908-bN
T26 chain: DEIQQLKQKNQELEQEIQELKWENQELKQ

4H3855-bN = target: T27, 4H3855-bN
T27 chain: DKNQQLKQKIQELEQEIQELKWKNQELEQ

4H462-bN = target: T28, 4H462-bN
T28 chain: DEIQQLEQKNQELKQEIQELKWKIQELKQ

4H331-bN = target: T29, 4H331-bN
T29 chain: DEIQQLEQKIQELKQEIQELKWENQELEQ

4H370-bN = target: T30, 4H370-bN
T30 chain: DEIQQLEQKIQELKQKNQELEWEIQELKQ

4H3606-bN = target: T31, 4H3606-bN
T31 chain: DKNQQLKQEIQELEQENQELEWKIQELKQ

4H568-bN = target: T32, 4H568-bN
T32 chain: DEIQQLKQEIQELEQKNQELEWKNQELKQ

4H967-bN = target: T33, 4H967-bN
T33 chain: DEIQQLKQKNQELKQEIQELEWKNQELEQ

4H607-bN = target: T34, 4H607-bN
T34 chain: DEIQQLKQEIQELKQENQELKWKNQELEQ

4H687-bN = target: T35, 4H687-bN
T35 chain: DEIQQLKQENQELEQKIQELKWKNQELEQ

4H717-bN = target: T36, 4H717-bN
T36 chain: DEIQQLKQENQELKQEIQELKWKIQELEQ

4H883-bN = target: T37, 4H883-bN
T37 chain: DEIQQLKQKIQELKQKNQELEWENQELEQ

4H797-bN = target: T38, 4H797-bN
T38 chain: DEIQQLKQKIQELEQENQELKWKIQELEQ

4H4001-bN = target: T39, 4H4001-bN
T39 chain: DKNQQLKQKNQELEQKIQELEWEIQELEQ

4H3782-bN = target: T40, 4H3782-bN
T40 chain: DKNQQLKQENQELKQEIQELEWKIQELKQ

4H454-bN = target: T41, 4H454-bN
T41 chain: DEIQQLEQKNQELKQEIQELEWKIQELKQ

4H3843-bN = target: T42, 4H3843-bN
T42 chain: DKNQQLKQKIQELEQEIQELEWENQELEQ

4H754-bN = target: T43, 4H754-bN
T43 chain: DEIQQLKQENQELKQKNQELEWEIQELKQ

4H3427-bN = target: T44, 4H3427-bN
T44 chain: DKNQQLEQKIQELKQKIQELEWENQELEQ

4H918-bN = target: T45, 4H918-bN
T45 chain: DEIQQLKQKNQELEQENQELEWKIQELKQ

4H338-bN = target: T46, 4H338-bN
T46 chain: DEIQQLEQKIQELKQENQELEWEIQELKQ

B1: O4-bS (peptide)
chain: DKISQLKQEISELEQKNSELKWKNSQLKQ
Q: Which interaction score (O5-bS) does the source give for B1 here?
A: -0.823

Q: What about the interaction score (O7-bS) of the same binder?
A: -0.221

Q: What about the interaction score (O4-bS) of the same binder?
A: -1.26

Q: And the interaction score (O6-bS)?
A: 0.143

Q: What about the interaction score (O9-bS) of the same binder?
A: 0.414

Q: And the interaction score (O8-bS)?
A: -2.55

B2: 4H3010-bA (peptide)
chain: DKIAQLKQKNAELKQEIAELEWEIAQLKQ
Q: With B2 as the binder, how does the interaction score (4H575-bA) read?
A: -0.532

Q: And the interaction score (4H457-bA)?
A: 1.48

Q: What about the interaction score (4H797-bA) of the same binder?
A: -0.928

Q: And the interaction score (4H855-bA)?
A: -1.32

Q: And the interaction score (4H953-bA)?
A: 0.368

Q: What about the interaction score (4H3010-bA) of the same binder?
A: 0.824

Q: And the interaction score (4H3926-bA)?
A: 1.35

Q: What about the interaction score (4H683-bA) of the same binder?
A: 0.693

Q: What about the interaction score (4H3112-bA) of the same binder?
A: -0.267

Q: What about the interaction score (4H3427-bA) of the same binder?
A: 0.296

Q: What about the interaction score (4H346-bA) of the same binder?
A: -0.9

Q: And the interaction score (4H4073-bA)?
A: 0.722

Q: What about the interaction score (4H968-bA) of the same binder?
A: -0.854

Q: What about the interaction score (4H780-bA) of the same binder?
A: -1.79

Q: And the interaction score (4H918-bA)?
A: -0.579

Q: And the interaction score (4H754-bA)?
A: -0.693

B3: 4H331-bN (peptide)
chain: DEIQQLEQKIQELKQEIQELKWENQELEQ
Q: Which results are given for B3?
A: interaction score (4H3354-bN): -0.055; interaction score (4H72-bN): 0.918; interaction score (4H953-bN): -0.578; interaction score (4H908-bN): -1.35; interaction score (4H3855-bN): 1.17; interaction score (4H462-bN): -0.381; interaction score (4H331-bN): -0.214; interaction score (4H370-bN): 0.508; interaction score (4H3606-bN): -0.132; interaction score (4H568-bN): -1.41; interaction score (4H967-bN): -0.995; interaction score (4H607-bN): -2.2; interaction score (4H687-bN): -0.624; interaction score (4H717-bN): -0.661; interaction score (4H883-bN): -0.0918; interaction score (4H797-bN): -0.866; interaction score (4H4001-bN): 0.329; interaction score (4H3782-bN): -0.492; interaction score (4H454-bN): -0.999; interaction score (4H3843-bN): -0.476; interaction score (4H754-bN): -0.762; interaction score (4H3427-bN): 1.12; interaction score (4H918-bN): -0.476; interaction score (4H338-bN): -0.434
